Here are results for 21 molecules from patent US20200002710A1, “SYSTEMS AND METHODS FOR CONTROL OF GENE EXPRESSION” (TRUSTEES OF BOSTON UNIVERSITY, published 2020).

Positions count from the first letter of the chain named.

First the molecules themselves.
T1: MBP-syn. (MBP fusion of the syntrophin PDZ domain) (UniProt Q28626 83-177)
T1 chain: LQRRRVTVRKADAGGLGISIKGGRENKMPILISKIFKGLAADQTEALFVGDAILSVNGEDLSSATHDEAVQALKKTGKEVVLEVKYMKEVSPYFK

T2: MBP-syn. (MBP fusion of the syntrophin PDZ domain) (Oryctolagus cuniculus (Rabbit), UniProt Q28626 83-177)
T2 construct: Used as an MBP fusion in the PDZ-ligand anisotropy assays; also called MBP-PDZ; pCB378
T2 sequence: T1 chain

T3: MBP-erb. (MBP fusion of the erbin PDZ domain) (Mus musculus (Mouse), UniProt Q80TH2 1304-1387, limits assumed)
T3 construct: also called MBP-PDZ; pCB425
T3 chain: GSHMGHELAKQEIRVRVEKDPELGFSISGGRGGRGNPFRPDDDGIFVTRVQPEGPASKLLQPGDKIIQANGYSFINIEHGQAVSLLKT

T4: 42-10 (ZF2) low affinity synTF (artificial, R-to-A backbone (low affinity allele, already in ref))
T4 chain: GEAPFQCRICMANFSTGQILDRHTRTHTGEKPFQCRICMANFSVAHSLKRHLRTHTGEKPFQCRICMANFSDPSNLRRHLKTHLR

T5: 43-8 (ZF1) high affinity synTF (artificial)
T5 chain: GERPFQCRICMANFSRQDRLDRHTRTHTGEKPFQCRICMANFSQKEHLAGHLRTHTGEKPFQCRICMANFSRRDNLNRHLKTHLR

T6: 43-8 (ZF1) low affinity synTF (artificial, R-to-A backbone (low affinity allele, already in ref))
T6 chain: T5 chain with R3A

T7: 42-10 (ZF2) high affinity synTF (artificial)
T7 chain: T4 chain with A3R

B1: MBP-43-8(low)-syn. lig. (S6) (other, not shown: large carriers)
chain: GEAPFQCRICMANFSRQDRLDRHTRTHTGEKPFQCRICMANFSQKEHLAGHLRTHTGEKPFQCRICMANFSRRDNLNRHLKTHLRGSGSGVKEALV
notes: also called VKEALV; pCB386
B2: 43-8 synTF with appended erbin ligand E1 (WLVTWV) (other, not shown: large carriers)
chain: B1 chain with V91W, K92L, E93V, A94T, L95W
B3: 43-8 synTF with appended erbin ligand E2 (WLKTWV) (other, not shown: large carriers)
chain: B1 chain with V91W, K92L, E93K, A94T, L95W
B4: MBP-43-8(low)-syn. lig. (S7) (other, not shown: large carriers)
chain: B1 chain with V91H, K92L, A94T, L95F, V96F
notes: also called HLETFF; pCB387
B5: MBP-43-8(low)-syn. lig.(no bind) (other, not shown: large carriers; small tags and cut ends)
chain: B1 chain with L95A, V96A
notes: also called VKEAAA; nb
B6: MBP-43-8(low)-syn. lig. (S2) (other, not shown: large carriers)
chain: B1 chain with V91I, K92R, A94T, L95I, V96L
notes: also called IRETIL; pCB381
B7: MBP-43-8(low)-syn. lig. (S1) (other, not shown: large carriers)
chain: B1 chain with V91I, K92R, A94T, L95I, V96I
notes: also called IRETII; pCB380
B8: MBP-43-8(low)-syn. lig. (S4) (other, not shown: large carriers)
chain: B1 chain with V91I, K92R, A94T, L95I
notes: also called IRETIV; pCB384
B9: MBP-43-8(low)-syn. lig. (S5) (other, not shown: large carriers)
chain: B1 chain with A94S
notes: also called VKESLV; pCB385
B10: 42-10 DBM3 (dsDNA)
DNA 1: AGACGGTGCTC
DNA 2: GAGCACCGTCT
B11: 42-10 DBM6 (dsDNA)
DNA 1: AGACGCTGCTA
DNA 2: TAGCAGCGTCT
B12: 42-10 DBM7 (dsDNA)
DNA 1: AGACTCTGCTC
DNA 2: GAGCAGAGTCT
B13: 42-10 DBM5 (dsDNA)
DNA 1: AGACGCTACTC
DNA 2: GAGTAGCGTCT
B14: 42-10 DBM4 (dsDNA)
DNA 1: ACACGCTGCTC
DNA 2: GAGCAGCGTGT
B15: 42-10 DBM2 (dsDNA)
DNA 1: TGACGCTGCTT
DNA 2: AAGCAGCGTCA
B16: 43-8 DBM2 (dsDNA)
DNA 1: ACAGTGAGGAC
DNA 2: GTCCTCACTGT
B17: 43-8 DBM3 (dsDNA)
DNA 1: ATAGTGAGGAC
DNA 2: GTCCTCACTAT
B18: MBP-43-8(low)-syn. lig. (S3) (other, not shown: large carriers)
chain: B1 chain with V91I, K92R, E93W, A94T, L95I
notes: also called IRWTIV; pCB382
B19: 43-8 synTF with appended erbin ligand E3 (PVDSWV) (other, not shown: large carriers)
chain: B1 chain with V91P, K92V, E93D, A94S, L95W
B20: 43-8 nc=2 probe (dsDNA)
DNA 1: GAATTCGTCCTCACTCTTCGGTCCTCACTCTGGATCC
DNA 2: GGATCCAGAGTGAGGACCGAAGAGTGAGGACGAATTC

One data set has as its target T1, MBP-syn. (MBP fusion of the syntrophin …). Put plainly: fluorescence anisotropy competition; experimentally-measured.
Settings: not given
On the technique in general: In fluorescence polarisation assays a small probe gives low polarisation when free and higher when bound to something large.
Broadly, the Kd is the constant that tells how readily two partners part at equilibrium. For the molecule B1, the Kd was 20300 nM.

For another data set, the target named is T2, MBP-syn. (MBP fusion of the syntrophin …). As to the kind of experiment: fluorescence anisotropy competition (nb indicates no binding).
Settings: not given
The method, then: (§1) Probe concentration was assessed by measuring Abs490. Competitor peptides were purified as MBP-ZF43-8 fusions (see e.g., FIG. 5A-FIG. 5B, FIG. 7A-FIG. 7B).
(§2) All assays were conducted in 20 mM Tris, pH 7.5, 100 mM […], 50 μM ZnCl2 buffer at 25° C. Proteins, probes, and competitor oligos were added to a final volume of 300 μL. Probes were used at 10 nM in all experiments. For complex assembly experiments (FIG. 1C), indicated concentrations of MBP-ZF₄₃₋₈ harboring a VSKESLV* ligand (SEQ ID NO: 120) (see e.g., FIG. 5A-FIG. 5B, FIG. 7A-FIG. 7B) were titrated against 5 μM concentrations of clamp. Mixtures were allowed to equilibrate at 25° C. for 10 min in Costar black 96-well plates prior to reading. Fluorescence anisotropy (FA) measurements were made at 494 nm using a SpectraMax M5 (Molecular Devices) fluorescence plate reader. For all measurements, anisotropy (r) was calculated using the following equation, wherein I_{∥} and I_{⊥} are parallel and perpendicular fluorescence, respectively:
(§3) PDZ-ligand binding constants were measured in vitro by fluorescence anisotropy. Recombinant proteins were purified as described herein. […] Peptide probe binding to PDZ domain was measured. […] Kₐ values were extracted by fitting data to a quadratic binding equation (data not shown). Competition binding experiments were conducted to measure binding constants for ligand affinity variants. […] accompanying displacement of the probe by the competitor was measured, and competitor ligand Kd values were extracted by fitting data (converted to fraction probe bound) to a cubic equation describing competitive binding (see e.g., FIG. 7A).
Regarding B2, the binding result is reported as “no binding”.

For B3, the binding result was “no binding”.

A further data set addresses T3, MBP-erb. (MBP fusion of the erbin PDZ …). The data set is described as above.
Settings: not given
The method, then: as §1, §2, §3
As to B4, the binding result is listed as “no binding”. For B5, the binding result is “no binding”.

In the case of B6, the binding result is recorded as “no binding”. B1: the binding result is “no binding”. Regarding B7, the binding result is reported as “no binding”.

A further data set has as its target T1, MBP-syn. (MBP fusion of the syntrophin …). As to the kind of experiment: thermodynamic model fit; model-fitted.
Settings: not given
B8 had a Kd of 400 nM.

As to B9, binding was characterised by a dissociation constant (Kd) of 2050 nM.

The target of another data set is T4, 42-10 (ZF2) low affinity synTF. Put plainly: FP; fluorescence anisotropy competition; Zn2+, 25 C. To be noted: tags: N-terminal MBP; C-terminal GS linker + syntrophin ligand S5 (VKESLV). The method, then: (§4) Sequences for both sets of DBM affinity variants are listed on the right. Residues mutated from the WT sequence are indicated by bold type.
as §2
(§5) TF-DBM binding constants were measured in vitro by fluorescence anisotropy (FA). Recombinant proteins were purified and DBM oligos prepared as described herein. […] Affinities for the interaction were measured as a function of the increase in fluorescence anisotropy resulting from binding of the fusion to a fluorescently labeled (FITC) oligo probe (data not shown). Oligo probe binding to ZF affinity variants was measured. MBP-ZF was titrated against 10 nM oligo probe. […] Kd values were extracted by fitting data to a quadratic binding equation (data not shown). Competition binding experiments were performed to measure binding constants for DBM affinity variants.
Take B10: the Kd is 32 nM. Consider B11, for which the Kd was determined as 218 nM. B12: the Kd was 415 nM. Consider B13, for which the dissociation constant Kd came to 95 nM. Regarding B14, the Kd amounted to 67 nM. In the case of B15, the Kd is 5.2 nM.

The next data set has as its target T5, 43-8 (ZF1) high affinity synTF. The description is as above. The following applies: tags: N-terminal MBP; C-terminal GS linker + syntrophin ligand S5 (VKESLV). The method, then:
as §4, §2, §5
As for B16, the Kd amounted to 30 nM. For B17, the dissociation constant Kd is 42 nM.

The target of a further data set is T6, 43-8 (ZF1) low affinity synTF. Described as above. To be noted: tags: N-terminal MBP; C-terminal GS linker + syntrophin ligand S5 (VKESLV). The method, then:
as §4, §2, §5
Consider B16, for which the Kd stood at 143 nM. Take B17: the Kd was 224 nM.

The target in a further data set is T7, 42-10 (ZF2) high affinity synTF. As to the kind of experiment: FP; fluorescence anisotropy competition; 20 mM Tris pH 7.5, 100 mM NaCl, 50 uM ZnCl2, 25 C. The following applies: tags: N-terminal MBP; C-terminal GS linker + syntrophin ligand S5 (VKESLV). The method, then:
as §4, §2
TF-DBM binding constants were measured in vitro by fluorescence anisotropy (FA). Recombinant proteins were purified and DBM oligos prepared as described herein. […] Affinities for the interaction were measured as a function of the increase in fluorescence anisotropy resulting from binding of the fusion to a fluorescently labeled (FITC) oligo probe (data not shown). Oligo probe binding to ZF affinity variants was measured. […]
As to B15, the Kd was 0.94 nM.

The next data set deals with T2, MBP-syn. (MBP fusion of the syntrophin …). As to the kind of experiment: fluorescence anisotropy competition; 43-8 synTF-ligand fusion titrated against MBP-syntrophin PDZ and FITC-VKESLV probe.
Settings: not given
The method, then:
as §1, §2, §3
B8 gave a Kd of 880 nM. On to B4, for which the Kd was 43200 nM. For B6, the Kd came to 180 nM.

As to B1, the Kd stood at 27300 nM.

Consider B18, for which the Kd came out at 490 nM. B19 had a Kd of 1570 nM. Turning to B7, the Kd came to 62 nM. Still for that read-out and setting: then B9, with 1970 nM.

The target of a further data set is T3, MBP-erb. (MBP fusion of the erbin PDZ …). Put plainly: fluorescence anisotropy competition; 43-8 synTF-ligand fusion titrated against MBP-erbin PDZ and FITC peptide probe.
Settings: not given
The method, then:
as §1, §2, §3
The molecule B8 showed a Kd of 3460 nM. Molecule B2 had a Kd of 100 nM. In the case of B18, the Kd amounted to 1730 nM. For the molecule B3, binding was put at a Kd of 330 nM. The same measure, in the same setting: with B19 the figure was 420 nM; with B9, 5710 nM.

Another data set has as its system 43-8 low affinity synTF + 3x syntrophin PDZ clamp (artificial). Put plainly: FP. To be noted: nH 2.55; synTF titration with 3-PDZ clamp.
The term EC50 denotes the concentration giving half of the maximal effect. Take “GAATTCGTCCTCACTCTTCGGTCCTCACTCTTCGGTCCTCACTCTGGATCC (double strand) [43-8 nc=3 probe]”: the EC50 stood at 5.1 nM.

In a further data set the target is T6, 43-8 (ZF1) low affinity synTF. Put plainly: FP; no clamp; nH 1.07. To be noted: tags: N-terminal MBP; C-terminal GS linker + syntrophin ligand S5 (VKESLV); label: fluorescein on bottom-strand thymidine. The method, then: as §2, with “respectively: […]” for “respectively:”
As to B20, the half-maximal effective concentration (EC50) worked out at 210 nM.
